Measured values taken from patent US20200190192A1.
Blank lines part the entries; values can stand above or below the binder they belong to.

Biological target: cynomolgus PD-1 expressed on CHO cells (cynomolgus monkey)
Assay: cPD-1 binding titration (format not named; taken as cell binding)

Bmax: 2960 | Kd: 0.3 nM
B1: 1353-G10 H1 HC IgG (antibody, V domains shown)
VH: EVQLVQSGAEVKKPGASVKVSCKASGYTFDSYGISWVRQAPGQGLEWMGWISAYNGNTNYAQKLQGRVTMTTDTSTNTAYMELRSLRSDDTAVYYCARDVDYGTGSGYWGQGTLVTVSS
VL: SYELTQPPSVSVSPGQTARITCSGDALPKQYAYWYQQKPGQAPVMVIYKDTERPSGIPERFSGSSSGTKVTLTISGVQAEDEADYYCQSADNSITYRVFGGGTKVTVL

Bmax: 2800 | Kd: 2.3 nM
B2: 1353-G10 H1/vk1-39 IgG (antibody, V domains shown)
VH: B1 VH
VL: DIQLTQSPSSLSASVGDRVTITCSGDALPKQYAYWYQQKPGKAPKLLIYKDTERPSGVPSRFSGSSSGTKVTLTISSLQPEDFATYYCQSADNSITYRVFGGGTKVEIK
